From the DeepSol protein solubility set

Assay: soluble on expression in E. coli; label from the status in PepcDB or PDB records

Sequence	soluble on expression in E. coli
MSLRASGSGANPDKTWESRSLPIGNGSLGANILGSVAAERITLNEKTLWKGGPNTSKGAEYYWDVNKQSAGVLKEIRQAFLDEDKEKAAQLTRNNFNGLAAYEEKDETPFRFGSFTTMGELYVETGLNELRMSNYRRILSLDSAMVVVQFDKDGVQYQRKYFISYPDSVMVMKFTANQSGKQNLILSYCPNSEAKSNLRADGKDGLVYTGVLDNNGMKFAFRIKAIHKGGTLEAENDRLIVKGADEVVFLLTADTDYKMNFNPDFKDPKTYVGNDPEQTTRIMMDQAVQKGYDELYRNHEADHTALFNRVRLQLNPDISSPNLPTYQRLANYKKGTPDYQLEQLYYQFGRYLLIASSRPGNMPANLQGMWHNNLDGPWRVDYHNNINIQMNYWPACSANLSECTWPLIDFIRSLVKPGEQTAQAYFNARGWTASISANIFGFTAPLSSNMMSWNLNPTAGPWLATHIWEYYDYTRDKKFLKEIGYDLIKSSAQFAVDHLWHKPDGTYTAAPSTSPEHGPIDEGVTFAHAVVREILLDAIQASKELGIDSKERKQWEKILDKLVPYRIGRYGQLMEWSTDIDDPEDEHRHVNHLFGLHPGHTISPITTPKLAEAAKVVLEHRGDGATGWSMGWKLNQWARLQDGNHAYKLYGNLLKNGTLDNLWDTHAPFQIDGNFGGTAGITEMLLQSHMGFIQLLPALPDAWKNGSITGICAKGNFEISISWKEGQLDKATILSGSGTPCNVRYGDKTLSFSTVKGKKYEITLVGNLLKLEGHHHHHH	soluble
MALTNAQILAVIDSWEETVGQFPVITHHVPLGGGLQGTLHCYEIPLAAPYGVGFAKNGPTRWQYKRTINQVVHRWGSHTVPFLLEPDNINGKTCTASHLCHNTRCHNPLHLCWESADDNKGRNWCPGPNGGCVHAVVCLRQGPLYGPGATVAGPQQRGSHFVV	soluble
APAAVDWRARGAVTAVKDQGQCGSCWAFSAIGNVECQWFLAGHPLTNLSEQMLVSCDKTDSGCSGGLMNNAFEWIVQENNGAVYTEDSYPYASGEGISPPCTTSGHTVGATITGHVELPQDEAQIAAWLAVNGPVAVAVDASSWMTYTGGVMTSCVSEALDHGVLLVGYNDSAAVPYWIIKNSWTTQWGEEGYIRIAKGSNQCLVKEEASSAVVG	soluble
MGSDKIHHHHHHMTKRIMFTGGSGKAGRHVVQYLVEQGCQVLNIDTKPLDNPKVRTLITDITDSGQVFNALSSYMGLHEFDPSLRPQPVDAVVHFAAIPRIMITPDNEVFRINAMGTYNVIEAAVKLGIRKVIVASSETTYGLVFANEPRDPKYFPLDEEYDVDPMDSYALSKVVNEKTARAFAQRNGTDIYALRIGNVIEPHEYSLFPKWFADPGFRKRIAWSYIDARDLGQITLRAIEKDGLGYQVFNAANDDTSSDLPTAELLKRFYPNVPVKAALGEYETLLSNRKARDMLGFRPEHSWRKYVK	not soluble
MKLIVKVFPEITIKSPPVRKKFIRQLGKNIRTVLRELDADIVVGGVWDNLEVETRLTDPKVLQGIRDRLSCMPGIANFLQVAEYPLGDMDDVVAKCKLHYADLLPGTMFSVRCKRAGRHDFSSMDVEKYVGSQLRMQCGAAGIELKKPDLVVRMEIRDQRLFVVHDQHKGMGGYPLGALEQTLVLMSGGFDSTVAAYQIMRRGLMAHFCFFNLGGRAHELGVMEVAHFIWKKYGSSQRVLFVSVPFEEVLGEILQKVDNSHMGVVLKRMMLRAASAVADRLEIDVLVTGEAISQVASQTLPNLSLIDAATDKLVLRPLVATHKQDIVDLATEIGTADFARHMPEYCGVISVNPKTNAKRNRVEYEEQQFDMAILEQALERAKLVSIDRVIDDLSRNIDIEEVSQALAGQVIIDIRHPDAQEDQPLQVPGVEIQTLPFYALNSRFKALDDTRQYLLYCDKGVMSRLHAHHLLSEGHANVRVYRPS	not soluble
SADAFSLQRVLETFRSSLSENKEVYIKYYIAGWQELVSFMNSLGNVFSFISKDVVSKIQILENFLSGENGSNYVTIQSMVKYELENDLVDLTKRGSHPESGCRTLLRLHRALRWLELFLERLRTSTEDSKTSVMCSDAYNESLANHHPWLIRKAVGVAFCALPGRETFFDVMNAGDHTQVVALLGESLPLIAEVYQITEDLYAKNNLLELP	soluble
MNPISRVAIIGECMVELKKHDGVLQQGFGGDTLNTAVYLSRLTKQHGVETSYVTGLGHDPFSREMLTAWREEGINTDMVYLSEDKLPGIYAIETAEDGERSFFYWRNDAAAKYWLRERALLSLVKDLCQHQMIYLSGISLAIISDDCRQMLIELLTMCRKEGVKIAFDNNFRPKLWPNIEQARDFYSKILSVTDMAFLTFDDEVMLWGDKHE	not soluble
MGSDKIHHHHHHMKMNHLDIAKEALVAQAQAVAKLADRLDGQFQSAVDLILACEGRTVVCGMGKSGLIGKKMVATFASTGTPSFFLHPAEAFHGDLGMLKPVDVLVLISYSGETEELIKLIPSLKSFGNKFIAMTGSGNSTLAKHADIWLDISVDREVCPNNLAPTTSTLATMAMGDALAVALITANQFKPMDFARYHPGGSLGRKLLTRVADVMHSPAPIVSPASSFQDCLLMMTQSRLGLAMVMDGNELVGIVTDGDLRRALLKNNQVIHASVTEFMTLNPHTIPADCRVSVAEAYMLENKIRALAVVDDCGAIVGVVEIFDGNPVA	not soluble
MGSSHHHHHHGKTIFVIVPTNEEQVAFLEALAKQDELNFDWQNPPTEPGQPVVILIPSDMVEWFLEMLKAKGIPFTVYVEEGGSENLYFQGGGGGGLASGSSSAEGGAKRFSRQQIIQHVKKSLLYTAFDVRWVPQTASFAVVGQYPNNHGALSVYQLHHGDVQPTVEVRLPHPLKCCTFGHNISFSSSGSGSGGNSSSITAANATMNQIATGDFAGSLQIFDLSRLGSTPPSAPNALSDVTAASVLHIPHAHESIINAIDGARYSGPPEVATGSRDGSVKVWDTRQSNKPVVSLNPADPARARDCWTVRLGNSFDPDERVVAAGYDNGDVKIFDLRTQKMLHEMHVNNGVCDLEFDRPDIPMNKLLVSSLEGRVRCYDMRTLHPKLGYAYVEERVSEGTVWCSRALPQNREIFLSGGGGELTLCLYKYPPERTLKDGDGLQRGVAGAVEELNKAKIGDQPINAMDWNRSKEGLAVCASFDQSIRVMLVTKLGLLS	not soluble
MGSDKIHHHHHHMSIFISGSLAYDRIMNFPGKFSDHILPDKIHILNVCFLIDRLEEKRGGTAGNIAYSLALLGEKPTILATVGKDFDRYEEVLTGLGLPQDGIRKMDDQFTAGAYITTDQSDNQITGFNPAAMSHPCGYQFNGVTPENDLAIVSPGNLQDMVELPRKFRSMGMRYIFDPGQQITALTGDSMLECINGAHMLVSNDYELEMIMKATGRTKAELLTMTDYIITTLGENGSRIDNGEPVMVGIARPRQVLDPTGAGDAFRAGLLKGLTDGLDVAGAAKIGATCASFCVEHYGTQEHTFTPEEFKARHQAAFGA	not soluble
MAHHHHHHMLECNTNSALMEAHFGVVHADQLVPRALSSHAAAAQLSGASKPDKTPTPSLPPGPFIVMGLYGRNVLVLIADGEGQTAVQIHVTRGVAEVAETFRKVAGTPLPPPALPLEPLSVPASPPESTMVAEAAAASRLVANDEVSQERPQAPETERREDQAGPVPATVTCIVAEETDAFMAPAADIAAAAAAEAQLCKDKAAGMRGVEGVCKEVGTATPVADEERHGGPPPTKEVILTDLHKAGETAAHACSSVVVEISQGVSISAASAPRTWRWSSTTSSSASSSSFDSHASQRLRQQQQQSRLEQIGEEQAHRSGPSTGRASAPSTPTDKVVEEVAEAWPTYGAQLLESAEEVTVVPAVTPATDDAPPLMTLPAAEHAMTSQNGEGVFQAEAAIGVVEAANTKTPGEKDVHYHDDGVVSADASLHGQSLLQLPEKDLSAPEGESEKHLQLGSSLAVQFFADHTPSLLPASSSMPRPSQQQHTGDAQEASLGTEVSFDEDGVDAHRLPATLESDCEERVQHVSGADADDVAGPVIAFQASSLLASVEQRGWANQAPPVRHVAIPAGEEVAVTTAMARSATAFTPSYSPPPASPADLRAAPRVWGAQGTSYPTSGPSPCAAAVGLQHHSAATPFTNFLKAYAVYVLGTHGAASGGESKQLRNGTAPHMNECAAGAGEASRGVAELASILDFYREQPLARIMEATAIQRRCRAAWNEVIASTPASAAAQVGSDVEVCKLKASASTTVFTELCVDELVSLLAIVHYPSPRQDG	not soluble
MGSSHHHHHHGMASMTGGQQMGRDLYDDDDKDPSSRSMAKLTKPKTEGILHKGQSLYEYLDARVLTSKPFGAAGDATTDDTEVIAASLNSQKAVTISDGVFSSSGINSNYCNLDGRGSGVLSHRSSTGNYLVFNNPRTGRLSNITVESNKATDTTQGQQVSLAGGSDVTVSDVNFSNVKGTGFSLIAYPNDAPPDGLMIKGIRGSYSGYATNKAAGCVLADSSVNSLIDNVIAKNYPQFGAVELKGTASYNIVSNVIGADCQHVTYNGTEGPIAPSNNLIKGVMANNPKYAAVVAGKGSTNLISDVLVDYSTSDARQAHGVTVEGSDNVINNVLMSGCDGTNSLGQRQTATIARFIGTANNNYASVFPSYSATGVITFESGSTRNFVEVKHPGRRNDLLSSASTIDGAATIDGTSNSNVVHAPALGQYIGSMSGRFEWRIKSMSLPSGVLTSADKYRMLGDGAVSLAVGGGTSSQVRLFTSDGTSRTVSLTNGNVRLSTSSTGYLQLGADAMTPDSTGTYALGSASRAWSGGFTQAAFTVTS	soluble
MSKQDEVIVVGKFGASYGIRGWLKVVSFTDQPESIFDYKPWLIQVKGEWVEFSVESWKRHKGLVCKLKGLDVREEAQTYTNLEIAVKADALPELSEDEFYWRELFGMEVVTTKGYALGVVDDIFETGSNDVLVVKANLKDAFGKKERLIPFIDEQVIKLIDREAQRIEVDWDPGFLEHHHHHH	soluble
MTSGTTRWLDDCTPRALERFADELIAMAEQREDEARRRFYEGMAVAAKLIALRWEGKCAYIDDHLLDNVYEALAVFSLEKLEKTLAMEAEEAHGGGRCSFCLKEKPRLAKGPLAAICDDCLQFGLQVIAKQP	not soluble
MSLDYAQRAVQVDPPRRLTHEMDSWARNFVMLRTDVQGRPINRLEGVYVEHFPDDDSYHVTTPRAIGQQAGNPITIGVSKTAIMEQGGQRIVMNGDAHVHRQPDARNETLDVRSQQLILLPDDDVVFTDLPAQVNKGNSRMNGTGMHYNNKTRQLRVSAAADVEIAGTEGRKRQSTETPANSNQNKPEGHHHHHH	soluble
MSKPEFIARQGRKPTGWLGHIVARVMARETRPENDRALSFLDLADGDSLIDIGCGHGETLFQADRIVRLSGSVGVDFSEVMLKRARARNRDAVWDTRMAFHCADTAALPFPDKRFGKALSVHTIYFWPNPAAHLAEAFRVLRRGGRFLFCYRSTADRRAVEEFPDTVYRFPSVQEVEEKLKLVGFLGPETTTEDIKGRLTHWSIAEKPLEHHHHHH	soluble
MINIDPPSGDCPASGGSSTHNIVSESESRLAFKVKSSNNESYRVRPVYGFVDAKGKAKLDVNRLAGPPKEDKLVIQYARVPADETDPKAPFAAGAQQGEVVVKMVAT	not soluble
MWRNSEERENRTSGRSQGSYQEIIGRTWIFRGAHRGRVNKKNIVWHELIGLKVRVVNSTHPGYVGIEGYVIDETRNMLVIAGENKVWKVPKDVCIFEFETWDGTKIKISGEKLVGRPEMRLKKRWRK	soluble
MHLELHQINGNDPLGTIIGERNYQLPIPLPYTMKTVKQIHSGIWHTVIRGYDQYNRPQIATFGKNYDGQLGTGDCENRDTPTPIKLPPEMLTFHAIQTGFFHTIATGLDKNGFPIVASCGYNSDGQLGCGDKDNKNTLIPIKLPENMKSVEMVATGVKHTVIVGKDINNKPVVATCGHNGYGQLGTGDEENRLCLTPIGIPEDITSVDYVGAGAYHTVICGRNIKNQPIITLCGCNSDGELGFAPQKIAKKSSLMTNPAMFFPPRQDKSAINNLMKISKFSPCNLL	not soluble
